In patent US20190002548A1 (Chugai, published 2019):
Numbering of substitutions follows the chain as printed. Names may count otherwise. Like-named read-outs stand apart in the source and are kept apart here.

Assays:
[1] = biological target: T1, Human mature myostatin (myostatin mature form; recombinant mature myostatin) (human (mature form 100% identical in …, UniProt O08689 268-376 (mouse entry), biotinylated in the Biacore assay (immobilized on a streptavidin chip); not labelled in the HEK Blue Assay); experiment: SPR, Biacore T200, 37 degrees C; biotinylated mature myostatin on streptavidin chip, 100 nM antibody bound at pH 7.4; dissociation phase at pH 5.8
T1 construct: Disulfide-bonded homodimer of the C-terminal growth factor domain, purified from latent myostatin expressed in FreeStyle293-F cells; also called GDF-8 mature form; C-terminal growth factor domain of human myostatin
T1 sequence: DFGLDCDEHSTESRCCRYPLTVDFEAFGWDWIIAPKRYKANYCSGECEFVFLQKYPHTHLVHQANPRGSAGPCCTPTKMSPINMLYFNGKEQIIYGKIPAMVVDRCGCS
Experimental: (§1) pH dependent binding of MST0226 variants to human mature myostatin were determined at 37 degrees C. using Biacore T200 instrument (GE Healthcare). Biotinylated mature myostatin was immobilized onto streptavidin sensor chip (GE Healthcare). In order to assess pH dependent binding of MST0226 variants to mature myostatin, 100 nM of antibodies were injected over mature myostatin sensor surface at pH 7.4 (20 mM ACES, 150 mM NaCl, 1.2 mM CaCl₂), 0.05% Tween 20, 0.005% NaN₃), followed by dissociation at pH 7.4 and an additional dissociation phase at pH5.8. This is to assess the pH-dependent dissociation of antibody/antigen complexes formed at pH 7.4. The dissociation rate (kd) at both pH 7.4 and pH 5.8 buffer was determined by processing and fitting data using Scrubber 2.0 (BioLogic Software) curve fitting software. The ratio of (kd at pH5.8)/(kd at pH 7.4) gives indication of pH dependent binding, e.g. ratio>1 indicates pH dependent binding. The sensor surface was regenerated each cycle with 10 mM Glycine-HCl, pH 1.7.

[2] = biological target: T1, Human mature myostatin (myostatin …); experiment: SPR, Biacore T200, 37 degrees C; biotinylated mature myostatin on streptavidin chip; ratio of dissociation rates
Experimental: as §1

[3] = biological target: T1, Human mature myostatin (myostatin …); experiment: SPR (Biacore T200, 37 degrees C), biotinylated mature myostatin on streptavidin chip, 100 nM antibody, dissociation at pH 7.4 then pH 5.8
Experimental: as §1

[4] = biological target: T1, Human mature myostatin (myostatin …); experiment: SPR, Biacore T200, 37 degrees C; biotinylated mature myostatin on streptavidin chip, 100 nM antibody bound at pH 7.4; dissociation phase at pH 7.4
Experimental: as §1

[5] = biological target: T1, Human mature myostatin (myostatin …); experiment: cell-based or functional assay
[6] = biological target: T1, Human mature myostatin (myostatin …); experiment: cell-based or functional assay; remark: listed apart in the source

B1: MS_M22601H1020-SG1/M22608L0744-SK1 (antibody, human IgG1, kappa, V domains shown)
VH: EVQLVESGGGLVQPGGSLRLSCAVSGFTLSHYVKGWVRQAPGKGLEWIGIINISGSTYYASWAKGRFTISRDNSKNTVYLQMNSLRAEDTAVYFCARGHDNFGYSYHDFNLWGQGTLVTVSS
VL: AVVMTQSPATLSLSPGERVTLSCQASQSIHHELSWYQQKPGQPPKLLIYLASTLASGVPSRFKGSGSGTDFTLTISSLQPEDAATYYCQTYDGISHYGVAFGQGTKVEIKR
notes: pH-dependent variant of MSLO00-SG1; also called MSLO01-SG1; LO01-SG1
[1]
  koff: 0.00228 s⁻¹
[2]
  Ratio of (kd pH 5.8)/(kd pH 7.4): 17.4
[3]
  ratio of (kd at pH5.8)/(kd at pH 7.4): 17
[4]
  koff: 0.000131 s⁻¹

B2: MS_M22601H1080-SG1/M22608L0837-SK1 (antibody, human IgG1, kappa, V domains shown)
VH: B1 VH with S54E, K64E
VL: B1 VL with Q27E
notes: pH-dependent variant of MSLO00-SG1; also called MSLO02-SG1; LO02-SG1
[1]
  koff: 0.00254 s⁻¹
[2]
  Ratio of (kd pH 5.8)/(kd pH 7.4): 26.2
[3]
  ratio of (kd at pH5.8)/(kd at pH 7.4): 17
[4]
  koff: 9.7e-05 s⁻¹

B3: MS_M22601H-SG1/M22608L-SK1 (antibody, human IgG1, kappa, V domains shown)
VH: B1 VH with H31N, K34M, H99G, H107I
VL: B1 VL with H30S, H31N, H96S
notes: Humanized form of MST0226-G1m; the non pH-dependent antibody; also called MSLO00-SG1; LO00-SG1
[1]
  koff: 6.04e-05 s⁻¹
[2]
  Ratio of (kd pH 5.8)/(kd pH 7.4): 0.8
[4]
  koff: 7.82e-05 s⁻¹

B4: MS_M22601H1080-SG1/M22608L0846-SK1 (antibody, human IgG1, kappa, V domains shown)
VH: B1 VH with S54E, K64E
VL: B1 VL with E32D
notes: pH-dependent variant of MSLO00-SG1; also called MSLO04-SG1; LO04-SG1
[1]
  koff: 0.00109 s⁻¹
[5]
  IC50 (read off the curve); HEK Blue Assay (SEAP reporter, OD620): ~6 ng/mL
[2]
  Ratio of (kd pH 5.8)/(kd pH 7.4): 25.9
[3]
  ratio of (kd at pH5.8)/(kd at pH 7.4): 17
[4]
  koff: 4.19e-05 s⁻¹

B5: MS_M22601H1082-SG1/M22608L0837-SK1 (antibody, human IgG1, kappa, V domains shown)
VH: B1 VH with S54E, S56E
VL: B1 VL with Q27E
notes: pH-dependent variant of MSLO00-SG1; also called MSLO03-SG1; LO03-SG1
[1]
  koff: 0.00321 s⁻¹
[2]
  Ratio of (kd pH 5.8)/(kd pH 7.4): 26.8
[3]
  ratio of (kd at pH5.8)/(kd at pH 7.4): 17
[4]
  koff: 0.00012 s⁻¹

B6: MS_MST0226Hc-G1m/MST0226La-kOMTC (antibody, human IgG1, kappa, V domains shown)
VH: QSVEESGGRLVTPGGSLTLTCTVSGFSLSNYVMGWVRQAPGKGLEWIGIINISGSTYYASWAKGRFTISRTSTTVDLKMTSLTTEDTATYFCARGGDNFGYSYIDFNLWGPGTLVTVSS
VL: AVVMTQTPASVSEPVGGTVTIKCQASQSISNELSWYRQKPGQPPKLLIYLASTLASGVPSRFKGSGSGTDFTLTISDLECADAATYYCQTYDGISSYGVAFGGGTKVVVER
[6]
  IC50 (read off the curve); HEK Blue Assay (SEAP reporter, OD620): ~7 ng/mL

B7: MS_MST0095Hf-G1m/MST0095Lf-kOMTC (antibody, human IgG1, kappa, V domains shown)
VH: QSVEESGGRLVTPGTPLTLTCTASGFSLSSYYMSWVRQAPGKGLEWIGIISSRGSTYYASWAKGRFTISKTSTTVDLKITSPTTEDTATYFCARGVVLWGPGTLVTVSS
VL: ALVMTQTPASVSAAVGGTVTINCQASESIYSGLAWYQQKPGQPPKLLIYSASTLASGVPSRFRGSGSGTEYTLTINDLECADAATYYCQAYDSTNWTFGGGTEVVVKR
[6]
  IC50 (read off the curve); HEK Blue Assay (SEAP reporter, OD620): ~4 ng/mL
